One series deals with SBS 30888 ZFN. Put plainly: cell_activity. The settings on record: paired with 30886 in G2019S heterozygous patient iPSC; pair more specific for G2019S mutant; value is % clones with monoallelic NHEJ (17% biallelic NHEJ).
A further series has as its system SBS 30886 ZFN. Put plainly: cell_activity. The settings on record: paired with 30888 in G2019S heterozygous patient iPSC; value is % clones with monoallelic NHEJ (17% biallelic NHEJ).

“GCAAAGATTGCTGACTACAGCATTGCTC (double strand) [LRRK2 6055G>A (G2019S) target of 30888]”: in the series with SBS 30888 ZFN, the activity was determined as 46%.

For the sequence “TGATGGCAGCATTGGGATACAGTGTGAA (double strand) [LRRK2 target of 27865/27866/27867/27868/30886]”, the activity with SBS 30886 ZFN was 46%.

(Values after patent US20120214241.)
